This note sets out measurements from the nanobody polyreactivity screen of Harvey et al. (2022).

A short description of the series: yeast display, Sf9 membrane polyspecificity reagent, FACS + sequencing; frameworks hold sequencing errors. The method in brief: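 Galactose-induced (36–48 hours) yeast carrying a synthetic nanobody display library were exposed to 10% biotinylated, detergent-solubilized Sf9 membrane reagent at 4 °C for 1 hour. FACS followed streptavidin microbead enrichment, using low and high (top ~1%) gates for expression (anti-HA) and reagent binding (streptavidin). Colony PCR, MiSeq 2 × 250 sequencing and CDR-length filtering followed. Labels for polyreactivity reflect the gate of origin.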
Consider “QVQLVESGGGLVQAGGSLRLSCAASGSTFRYYAMGWYRQAPGKEWELVAVISTSGNTYYADSVKGRFTISRDNAKNTVYLQMNSLKPEDTAVYYCAARGVGGQISQEYDYWGQGTQVTVSS”, for which the “polyreactivity (PSR sort gate)” value is reported as “low polyreactivity”.

Regarding “QVQLVESGGGLVQAGGSLRLSCAASGGIFSLYAMGWYRQAPGKERELVAAISRRGTITYYADSVKGRFTISRDNAMNTVYLQMNSLKPEDTAVYYCAALWHAVFYADYDYWGQGTQVTVSS”, the “polyreactivity (PSR sort gate)” value is “high polyreactivity”.

In the case of “QVQLVESGGGLVQAGGSLRLSCAASGLTFPGYAMGWYRQAPGKERELVAGISKRGGSTYYADSVKGRFTISRDNAKNTVYLQMNSLKPEDTAVYYCAAVYRSQSQPYDYWGQGTQVTVSS”, the “polyreactivity (PSR sort gate)” value is “high polyreactivity”.

As to “QVQLVESGAGLVKAGGSLRLSCAASGIIFGNYAMGLYRQAPGKEREFVAAISGSGDSTYYADSVKGRFTISRDNAKNTVYLQMNSLKPEVTAVYYCAADWTLVYYHEDYWGQGTQVTVSS”, the “polyreactivity (PSR sort gate)” value is “high polyreactivity”.

“QVQLVESGGGLVQAGGSLRLSCAASGRIFFWNALGWYRQAPGKEREFVATISWNDAITYYADSVKGRFTISRDNAKNTVYLQMNSLKPEDTAVYYCNVDPKIVFSFGYDYWGQGTQVTVSS”: the “polyreactivity (PSR sort gate)” value is reported as “low polyreactivity”.

Turning to “QVQLVESAGGLVQAGGSLRLSCAASGRTFGRKAMVWSRQAPGERELGAVISRGGSTYYADTVKGRFTISRDNAKNTVYLQMNILKPEDTAVYYCNADTVYTRTGPYDYWGQGTQVTVSS”, the “polyreactivity (PSR sort gate)” value is “low polyreactivity”.

In the case of “QVQLVESGGGLVQAGGSLRLICAATGITLGYYAMGWYRQAPGKERELVAAISYRGGNTYYADSVKGRFTISRDNAKNTVYLQMNSLKPEDTAVYYCNADLGYESGWWSKYDYWGQGTQVTVSS”, the “polyreactivity (PSR sort gate)” value is given as “low polyreactivity”.

In the case of “QVQLVESGGGLVQAGGSLRLSCAASGRTFYVYAMGWYRQAPGKERELVAAITSGGRTYYADSVKGRFTISRDNAKNTVYLQMNSLKPEDTAVYYCAVGNGLSRYVYGDYDYWGQGTQVTVSS”, the “polyreactivity (PSR sort gate)” value is “high polyreactivity”.

For “QVQLVESGGGLVQAGGSLRLSCAASGITLLGNTMGWYRQAPGKERELVAAIRTNSGRTYYADSVKGRFTISRDNAKNTVYLQMNSLKPEDTAVYYCAKRYFSYLGREMDYWGQGTQVTVSS”, the “polyreactivity (PSR sort gate)” value is listed as “high polyreactivity”.

Consider “QVQLVESGGGFVQAGGSLRLSCAASGFIFTKYAMGWYRQAPGKERELVAAIRGSGGSTYYADSVKGRVTISRDNAKNTVYLQMNSLKPEDTAVYYCAAERSLGYDYWGQGTQVTVSS”, for which the “polyreactivity (PSR sort gate)” value is “high polyreactivity”.

Turning to “QVQLVESGGGLVQAGGSLRLSCAASGITFADNSMGWYRQAPGKERELVAAISRGGSTYYADSVKGRFTISRDNAKNTVYLQMNSLKPEDTAVYYCAAAGWWRAWGSYLRFYGYDYWGQGTQVTVSS”, the “polyreactivity (PSR sort gate)” value is “low polyreactivity”.

In the case of “QVQLVESGGGLVQAGGSLRLTCAASGRTFYYYAMGWYRKAPGKERELVAAIDSDGSTTYADSVKGRFTISRDNAKNTVYLQINSLKPEDTAVYYCAAAFPTYRHYYWGQGTQVTVSS”, the “polyreactivity (PSR sort gate)” value is recorded as “low polyreactivity”.

On to “QVQLVESGGGLVQAGGTLRLSCAASGFLFVFYDMGWYRQAPAKERELVAGITRNDGSTYYADSVKGRFKISRDNAKNTVYLLMNSLKPEDTAVYYCAADRVRRNDKLAYDYWGQGTQVTVSS”, for which the “polyreactivity (PSR sort gate)” value was “low polyreactivity”.

Consider “QVQLVESGGGIVQAGGSLRLSCAASGRIFVRYAKGWYRQAPGKERELVAAITKSGGSTYYADSEKGRFTISRDTAKNTVYLQMNCLQPDDTAVYYCNADRFYIDYTNTYDSIRDYWGQGTLVTVSS”, for which the “polyreactivity (PSR sort gate)” value was “low polyreactivity”.

“QVQLVESGGGLVQAGGSLRLSSAASGFTFRAYAMGWYRQAPGKERELVAGISTRGGRTYYADSVKGRFTISRDNAKNTVYLQMNSLKPEDTAVYYCNAVDKTGKYDYWGQGPQVTVSS”: the “polyreactivity (PSR sort gate)” value is on record as “high polyreactivity”.

For the sequence “QVQLVESGGGLVQAGGSLRLSCAASGFTFRTYGMGWYSQAPGKERELVAAISRSSATTYYADSVKGRFTISRDNAKTTVYLQINSLKPEDTAVYYCNAGDLGRRWGMDYSGQGTQVTVSS”, the “polyreactivity (PSR sort gate)” value is “low polyreactivity”.

Turning to “QDQLVESGGGLVQAGGSLRLSCADSGRIFCINAMGWYRQAPGKERELVAAINWSGGSTYYADSVKGRFTISRDNAKNTVYLQMNSLKPEDTAVYYCAAQKYKRVGYWGQGTQVTVSS”, the “polyreactivity (PSR sort gate)” value is listed as “high polyreactivity”.

Regarding “QVQLVESGGGLVQAGGSLRLSCAASGSIFERYAMGWYRQSPGKEREFVATITSGGGRTYYADSVKGRFTISRENAKNTVYLQMNSLKPEDTAVYYCGAASYRRQPFNYWGQGTQVTVSS”, the “polyreactivity (PSR sort gate)” value is given as “high polyreactivity”.

Consider “QVQLVESGGGLVQAGGSLRLSCAASGSIFFYYAMGWYRQAPGKERELVAAISYSDGTTYYADSVKGRFTISRDNAKNTVYLQMNSLKPEDTAVYYCAADLWVGLVSLWDGYVEYDYWGQGTQVTVSS”, for which the “polyreactivity (PSR sort gate)” value is “low polyreactivity”.

“QVQLVESGGGLVQAGGSLRLSCAASGRIFRRNAMGWYRPAPGKERELVAGITWSGGTTYYADSVKGRFTISRDNAKNTVYLQMNSLKPEDTAVYYCNAGRSKWLSRYDYWGQGTQVTVSS”: the “polyreactivity (PSR sort gate)” value was “high polyreactivity”.

As for “QVQLVESVGGLVQAGGSLRLSSAASGRTFYFYTMGWYTQAPGKERELVATIRWSAGSTYYADSVKGRFTISRDNAKNTVYLQMNSLKPEDTAVYYCNADPYVYSSWQYGYWGQGTQVTVSS”, the “polyreactivity (PSR sort gate)” value is “high polyreactivity”.

As for “QVQLVESGGGLVQAGGSLRLSCAASGRIFSRYAMGLYRQAPGKERELVAAISWSGGSTYYADSVKGRFTISRDNAKNTVYLQMNSLNTEDTAVYYCAPPIKGSDSKYGYWGQCTQVTVSS”, the “polyreactivity (PSR sort gate)” value was “high polyreactivity”.

With “QVQLVESGGGLVQAGGSLRLSCAASGFTFHWYAMGWYRQAPGKERELVAAITDTGGSTYYADSVKGRFTISRDNAKNTVYLQMNSLKPEDTAVYYCATRHSKYGYEYDYWGQGTQVTVSS”, the “polyreactivity (PSR sort gate)” value is listed as “low polyreactivity”.

Regarding “QLQLVESVGGLVQAGGSLRLSCAASGGIFNVNALGWYRQAPGKERELVAAISLSGSNTYYADSVKGRFTISRDNAKNTVYLQMNSLKPEDTAVYYCNADYVYRRYGYWGQGTQVTVSS”, the “polyreactivity (PSR sort gate)” value is recorded as “high polyreactivity”.

Consider “QVHLVESGGCLVQAGGSLRLSCAASGRIFGLYAMGWYRPAPGKESELVAAISEGGGSTNYADSVKWRFTISRDNAKNTVYLQMNILKPEDTAVYYCAATYRTGVRRYYSWGQGTQVTVSS”, for which the “polyreactivity (PSR sort gate)” value is “low polyreactivity”.

In the case of “QVQLVESGGGLVQAGGSLRLSCAASGSTFHTYAMGWYRQAPGKERELVASISYGVTTYYADSVKGRFTISRDNAKNTVYLQMNSLKPEDTAVYYCAREGYKWVYLSYGYWGQGTQVTVSS”, the “polyreactivity (PSR sort gate)” value is reported as “low polyreactivity”.

Take “QVQLVESGVGLVQAGGSLRLICAASGMTFDNYAMGWYRQAPGKERELVAAITSGDGTYYADSVKGRFTISRDNAKNTVYLQMNSLKPEDTAVFYCAVQGSRTENYDWYYYWGQGTQVTVSS”: the “polyreactivity (PSR sort gate)” value was “low polyreactivity”.

For the sequence “QVQLVESGGGLVQAGGSLRLSCAASGSTFYKNTMGWYRQAPGKERELVATISSGDSTYADSVKGRFTISRDNAKNTVYLQMNSLKPEDTAVYYCAAASDLPGTGGYDYWGPGTQVTVSS”, the “polyreactivity (PSR sort gate)” value is on record as “low polyreactivity”.

For the sequence “QVQLVESGGGLVQAGGSLRLSCAASGLTIWRYAMGWYRQAPGKEREFVATISQNGGRTYYADSVKGRFTISRDNAKNTVYLQMQSLKPEDTAVYYCAADDWRWGYDYWGQGTQVTVSS”, the “polyreactivity (PSR sort gate)” value is reported as “high polyreactivity”.

With “QVQLVESGGRLVQAGGSLRLSCAASGSIISWYAMGWYRQAPGKERELVAAISNSGGSTYYADSVKGRFTISRDNAKNTVYLQMNSLKPEDTAVYYCAAYDGDTYDWGQGTQVTVSS”, the “polyreactivity (PSR sort gate)” value is “high polyreactivity”.
